Data: US20130022546A1 (UNIVERSITY OF TENNESSEE RESEARCH FOUNDATION, published 2013)
Ends that are not written are not given here.

Assays:
Experiment in all cases: biotinylated peptide overlaid on formalin-fixed amyloid-containing tissue sections; list of amyloids that p31 'specifically binds significantly'
[1] = target: Aβ amyloid (Alzheimer's disease) (human, UniProt P05067 672-713)
Method: (§1) The peptides were overlaid onto formalin-fixed 6 μm-thick amyloid-containing tissue sections, incubated overnight and then the distribution visualized using standard immunohistochemical techniques.

[2] = target: T1, ALECT2 amyloid (Lect2 amyloidosis) (human, UniProt O14960 19-151, limits assumed)
T1 construct: also called ALEC2
T1 sequence (looked up): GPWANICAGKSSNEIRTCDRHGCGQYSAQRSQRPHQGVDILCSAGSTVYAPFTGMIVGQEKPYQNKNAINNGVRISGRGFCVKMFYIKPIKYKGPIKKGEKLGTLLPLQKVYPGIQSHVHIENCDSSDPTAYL
Method: as §1

AA amyloid (canine) = target: T2, AA amyloid (canine) (canine, UniProt P19708 19-111)
T2 sequence (looked up): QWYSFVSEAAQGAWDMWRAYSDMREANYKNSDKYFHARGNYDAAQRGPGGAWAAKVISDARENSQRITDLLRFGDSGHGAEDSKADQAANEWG
Method: as §1

AA amyloid (human) = target: T3, AA amyloid (human) (human, UniProt P0DJI8 19-94, limits assumed)
T3 construct: also called serum amyloid protein A amyloidosis
T3 sequence (looked up): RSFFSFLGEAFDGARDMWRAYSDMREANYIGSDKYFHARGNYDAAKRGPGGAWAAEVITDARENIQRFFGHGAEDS
Method: as §1

[3] = target: ATTR amyloid (transthyretin amyloidosis) (human, UniProt P02766 21-147)
Method: as §1

Measured: binding result

B1: peptide p31 (peptide)
peptide: CGGYSKAQKAQAKQAKQAQKAQKAQAKQAKQ
modifications: also: label differs by assay: biotinyl-maleimide on Cys1 (tissue overlays), 125I on Tyr or 99mTc (imaging)
notes: Synthetic peptide with an N-terminal CGGY leader
binds: [1] | [2] | AA amyloid (canine) | AA amyloid (human) | [3]
